Experimental data from article PMC12803839.

Molecular target: pyruvate kinase M2 (human (endogenous in HK-2)) (UniProt P14618)
Assay: cross-linking; proteins of HK-2 cells treated with vehicle or compound 3k; DSS 1 mM, room temperature, 30 min, quenched with 20 mM Tris; SDS-PAGE and Western blot for PKM2; more monomer and less dimer and tetramer with compound 3k

Chain of pyruvate kinase M2, P14618 1-531 (natural protein; other documents disagree on this pair) (P14618 whole entry): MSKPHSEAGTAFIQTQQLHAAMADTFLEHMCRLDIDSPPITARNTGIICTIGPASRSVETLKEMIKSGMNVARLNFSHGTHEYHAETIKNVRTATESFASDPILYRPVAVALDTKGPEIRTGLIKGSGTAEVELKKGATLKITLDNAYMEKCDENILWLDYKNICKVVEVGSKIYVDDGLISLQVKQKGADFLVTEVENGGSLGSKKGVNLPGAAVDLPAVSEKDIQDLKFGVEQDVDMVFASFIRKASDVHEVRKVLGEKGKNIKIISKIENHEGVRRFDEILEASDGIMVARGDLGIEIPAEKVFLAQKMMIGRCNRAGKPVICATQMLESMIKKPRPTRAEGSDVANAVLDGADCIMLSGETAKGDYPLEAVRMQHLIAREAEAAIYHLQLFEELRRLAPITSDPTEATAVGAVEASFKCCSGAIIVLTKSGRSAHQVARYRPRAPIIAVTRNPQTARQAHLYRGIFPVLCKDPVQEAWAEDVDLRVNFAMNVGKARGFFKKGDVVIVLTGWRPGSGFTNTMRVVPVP

stoichiometry N: 2
Substance: pyruvate kinase M2, P14618 1-531 (natural protein; other documents disagree on this pair)
